The values that follow come from the supplement of paper PMC12067230.

± gives the uncertainty stated by the source.

B1: A-7-R; numbered along this chain (parent)
chain: EASNCFAIRHFENKFAVETLICFNLFLNSQEKHY

This data set covers variants of B1. Nature of the data set: amyloid nucleation score relative to WT ADan (yeast Sup35 reporter selection) (log enrichment difference); higher = more amyloid nucleation. The procedure: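 Deep mutational scan of the ADan peptide fused to the Sup35 nucleation domain (SupN) in S. cerevisiae [psi-pin-], covering all single amino-acid substitutions and stop truncations (truncations = sequence up to the stop). After 24 h Cu2+ induction, cells were selected on -ADE-URA plates for 7 d at 30 °C. The nucleation score is log enrichment (output/input, deep sequencing) minus that of WT ADan, as the error-weighted mean of 3 biological replicates (DiMSum).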
Turning to EASNCFRIRHFENKFAVETLICFNLFLNSQEKHY [A7R], the amyloid nucleation score stood at 0.12 ± 0.086.
Consider EASNCFVIRHFENKFAVETLICFNLFLNSQEKHY [A7V], for which the amyloid nucleation score worked out at 0.125 ± 0.1.
On to EASNCFTIRHFENKFAVETLICFNLFLNSQEKHY [A7T], for which the amyloid nucleation score is -0.0425 ± 0.13.
The result for EASNCFWIRHFENKFAVETLICFNLFLNSQEKHY [A7W] reads -0.43 ± 0.15; that for EASNCFFIRHFENKFAVETLICFNLFLNSQEKHY [A7F], 0.173 ± 0.13.
The result for EASNCFNIRHFENKFAVETLICFNLFLNSQEKHY [A7N] reads 0.744 ± 0.13.
The value for EASNCFGIRHFENKFAVETLICFNLFLNSQEKHY [A7G] was 0.45 ± 0.082.
Regarding EASNCFDIRHFENKFAVETLICFNLFLNSQEKHY [A7D], the amyloid nucleation score was -0.2 ± 0.14.
In the case of EASNCFCIRHFENKFAVETLICFNLFLNSQEKHY [A7C], the amyloid nucleation score came out at 0.601 ± 0.12.
The value for EASNCFEIRHFENKFAVETLICFNLFLNSQEKHY [A7E] was 0.0742 ± 0.14; that for EASNCFYIRHFENKFAVETLICFNLFLNSQEKHY [A7Y] was 0.529 ± 0.13.
The value for EASNCFLIRHFENKFAVETLICFNLFLNSQEKHY [A7L] was -1.17 ± 0.099.
The result for EASNCFQIRHFENKFAVETLICFNLFLNSQEKHY [A7Q] reads 0.436 ± 0.18.
EASNCFHIRHFENKFAVETLICFNLFLNSQEKHY [A7H]: the amyloid nucleation score was 0.394 ± 0.15.
The value for EASNCFSIRHFENKFAVETLICFNLFLNSQEKHY [A7S] was 0.0708 ± 0.089; that for EPSNCFAIRHFENKFAVETLICFNLFLNSQEKHY [A2P] was 0.0538 ± 0.21; that for ESSNCFAIRHFENKFAVETLICFNLFLNSQEKHY [A2S] was 0.208 ± 0.12.
On to EFSNCFAIRHFENKFAVETLICFNLFLNSQEKHY [A2F], for which the amyloid nucleation score is -1.28 ± 0.2.
Consider EGSNCFAIRHFENKFAVETLICFNLFLNSQEKHY [A2G], for which the amyloid nucleation score worked out at 0.0812 ± 0.13.
The result for EESNCFAIRHFENKFAVETLICFNLFLNSQEKHY [A2E] reads 0.464 ± 0.2; that for ECSNCFAIRHFENKFAVETLICFNLFLNSQEKHY [A2C], 0.581 ± 0.19; that for ELSNCFAIRHFENKFAVETLICFNLFLNSQEKHY [A2L], -1.51 ± 0.2.
The result for EISNCFAIRHFENKFAVETLICFNLFLNSQEKHY [A2I] reads -1.13 ± 0.23.
The value for ENSNCFAIRHFENKFAVETLICFNLFLNSQEKHY [A2N] was 0.137 ± 0.21.
Regarding EMSNCFAIRHFENKFAVETLICFNLFLNSQEKHY [A2M], the amyloid nucleation score is -1.1 ± 0.24.
The result for ERSNCFAIRHFENKFAVETLICFNLFLNSQEKHY [A2R] reads -0.078 ± 0.14; that for EVSNCFAIRHFENKFAVETLICFNLFLNSQEKHY [A2V], -1.22 ± 0.19.
The result for EYSNCFAIRHFENKFAVETLICFNLFLNSQEKHY [A2Y] reads -0.52 ± 0.22; that for ETSNCFAIRHFENKFAVETLICFNLFLNSQEKHY [A2T], -0.12 ± 0.14.
The result for EQSNCFAIRHFENKFAVETLICFNLFLNSQEKHY [A2Q] reads 0.125 ± 0.26.
Take EKSNCFAIRHFENKFAVETLICFNLFLNSQEKHY [A2K]: the amyloid nucleation score was -0.117 ± 0.23.
The result for EHSNCFAIRHFENKFAVETLICFNLFLNSQEKHY [A2H] reads 0.353 ± 0.26; that for EWSNCFAIRHFENKFAVETLICFNLFLNSQEKHY [A2W], -0.655 ± 0.21.
The value for EDSNCFAIRHFENKFAVETLICFNLFLNSQEKHY [A2D] was 0.518 ± 0.22.
On to EASWCFAIRHFENKFAVETLICFNLFLNSQEKHY [N4W], for which the amyloid nucleation score was -3.34 ± 0.39.
The result for EASFCFAIRHFENKFAVETLICFNLFLNSQEKHY [N4F] reads -4.13 ± 0.42; that for EASTCFAIRHFENKFAVETLICFNLFLNSQEKHY [N4T], -2.19 ± 0.26.
The result for EASVCFAIRHFENKFAVETLICFNLFLNSQEKHY [N4V] reads -4.24 ± 0.49; that for EASGCFAIRHFENKFAVETLICFNLFLNSQEKHY [N4G], -2.24 ± 0.15.
The result for EASACFAIRHFENKFAVETLICFNLFLNSQEKHY [N4A] reads -3.1 ± 0.4; that for EASRCFAIRHFENKFAVETLICFNLFLNSQEKHY [N4R], -0.0776 ± 0.12; that for EASQCFAIRHFENKFAVETLICFNLFLNSQEKHY [N4Q], -0.267 ± 0.22.
As for EASSCFAIRHFENKFAVETLICFNLFLNSQEKHY [N4S], the amyloid nucleation score was -0.879 ± 0.12.
The result for EASMCFAIRHFENKFAVETLICFNLFLNSQEKHY [N4M] reads -4.92 ± 0.93; that for EASYCFAIRHFENKFAVETLICFNLFLNSQEKHY [N4Y], -2.45 ± 0.28.
EASHCFAIRHFENKFAVETLICFNLFLNSQEKHY [N4H]: the amyloid nucleation score is -0.547 ± 0.26.
Consider EASLCFAIRHFENKFAVETLICFNLFLNSQEKHY [N4L], for which the amyloid nucleation score was -4.8 ± 0.57.
The value for EASDCFAIRHFENKFAVETLICFNLFLNSQEKHY [N4D] was 0.376 ± 0.17; that for EASECFAIRHFENKFAVETLICFNLFLNSQEKHY [N4E] was 0.296 ± 0.18; that for EASPCFAIRHFENKFAVETLICFNLFLNSQEKHY [N4P] was -0.352 ± 0.18.
The result for EASICFAIRHFENKFAVETLICFNLFLNSQEKHY [N4I] reads -3.04 ± 0.28; that for EASCCFAIRHFENKFAVETLICFNLFLNSQEKHY [N4C], -2.58 ± 0.3.
The value for EASKCFAIRHFENKFAVETLICFNLFLNSQEKHY [N4K] was 0.0897 ± 0.19.
Regarding RASNCFAIRHFENKFAVETLICFNLFLNSQEKHY [E1R], the amyloid nucleation score is -1.76 ± 0.21.
Turning to AASNCFAIRHFENKFAVETLICFNLFLNSQEKHY [E1A], the amyloid nucleation score amounted to 0.401 ± 0.18.
The value for DASNCFAIRHFENKFAVETLICFNLFLNSQEKHY [E1D] was -0.0528 ± 0.21; that for LASNCFAIRHFENKFAVETLICFNLFLNSQEKHY [E1L] was -1.03 ± 0.17.
The value for SASNCFAIRHFENKFAVETLICFNLFLNSQEKHY [E1S] was -0.005 ± 0.23.
The result for PASNCFAIRHFENKFAVETLICFNLFLNSQEKHY [E1P] reads 0.117 ± 0.38.
As to MASNCFAIRHFENKFAVETLICFNLFLNSQEKHY [E1M], the amyloid nucleation score is -0.555 ± 0.27.
The value for QASNCFAIRHFENKFAVETLICFNLFLNSQEKHY [E1Q] was -0.0134 ± 0.25; that for NASNCFAIRHFENKFAVETLICFNLFLNSQEKHY [E1N] was 0.0879 ± 0.31; that for VASNCFAIRHFENKFAVETLICFNLFLNSQEKHY [E1V] was 0.419 ± 0.15.
The result for CASNCFAIRHFENKFAVETLICFNLFLNSQEKHY [E1C] reads 0.179 ± 0.21.
In the case of KASNCFAIRHFENKFAVETLICFNLFLNSQEKHY [E1K], the amyloid nucleation score was -1.2 ± 0.24.
On to YASNCFAIRHFENKFAVETLICFNLFLNSQEKHY [E1Y], for which the amyloid nucleation score was found to be 0.135 ± 0.22.
The value for IASNCFAIRHFENKFAVETLICFNLFLNSQEKHY [E1I] was -1.07 ± 0.3; that for WASNCFAIRHFENKFAVETLICFNLFLNSQEKHY [E1W] was 0.00448 ± 0.2.
The value for FASNCFAIRHFENKFAVETLICFNLFLNSQEKHY [E1F] was -1.27 ± 0.26.
The value for GASNCFAIRHFENKFAVETLICFNLFLNSQEKHY [E1G] was 0.0173 ± 0.14.
Regarding HASNCFAIRHFENKFAVETLICFNLFLNSQEKHY [E1H], the amyloid nucleation score was -0.752 ± 0.34.
The result for TASNCFAIRHFENKFAVETLICFNLFLNSQEKHY [E1T] reads -1.09 ± 0.24.
